The text below walks through data of patent US20100239597A1.

Assay [1] deals with biotinylated ADDL (bADDL) (UniProt P05067). Put plainly: BIACORE, bADDL as antigen; IgG1#1. (In general: Surface plasmon resonance follows binding to a sensor surface in real time, without labels.)
The target in assay [2] is biotin-Aβ1-20 (UniProt P05067). Put plainly: BIACORE, biotin-Aβ1-20 as antigen; IgG1#1.
Assay [3] has as its target biotinylated ADDL (bADDL) (UniProt P05067). Nature of the assay: BIACORE, bADDL as antigen; IgG1#2.
Assay [4] has as its target biotin-Aβ1-20 (UniProt P05067). Put plainly: BIACORE, biotin-Aβ1-20 as antigen; IgG1#2.

B1: 20C2-6B IgG1 (antibody, V domains shown)
VH: QVTLKESGPALVKPTQTLTLTCTLSGFSLSTSGMGVGWIRQPPGKALEWLAHIWWDDDKSYNPSLKSRLTISKDTSKNQVVLTMTNMDPVDTATYYCARRQLGLRSIDAMDYWGQGTTVTVSS
VL: DVVMTQSPLSLPVTPGEPASISCRSSQSILHSNGNTYLEWYLQKPGQSPQLLIYKVSNRFSGVPDRFSGSGSGTDFTLKISRVEAEDVGVYYCFQSSRVPLTFGQGTKLEIK
By Kd is commonly meant the concentration at which binding is half-saturated. High values mean a looser complex, low ones a tighter complex. For B1, the dissociation constant Kd (in assay [1]; with biotin-Aβ1-20 [2]) was 0.053 nM throughout.

B2: 20C2-8B IgG1 (antibody, V domains shown)
VH: QVTLKESGPALVKPTQTLTLTCTLSGFSLSTSGMGVGWIRQPPGKALEWLAHIWWDDDKSYNPSLKSRLTISKDTSKNQVVLTMTNMDPVDTATYYCARRQLGLRSIDAMDYWGQGTTVTVSS
VL: DVVMTQSPLSLPVTPGEPASISCRSSQSILHSNGNTYLEWYLQKPGQSPQLLIYKVSNRFSGVPDRFSGSGSGTDFTLKISRVEAEDVGVYYCLQTTRVPLTFGQGTKLEIK
For B2, the Kd worked out at 0.013 nM in assay [1], 0.0008 nM in assay [3], 0.046 nM with biotin-Aβ1-20 [2] and 0.064 nM with biotin-Aβ1-20 [4].
